Data as given in patent US20240239875A1 (published 2024).
Positions count from the first letter of the chain named.

T1: HKU1 spike protein (HCoV-HKU1)
T1 chain: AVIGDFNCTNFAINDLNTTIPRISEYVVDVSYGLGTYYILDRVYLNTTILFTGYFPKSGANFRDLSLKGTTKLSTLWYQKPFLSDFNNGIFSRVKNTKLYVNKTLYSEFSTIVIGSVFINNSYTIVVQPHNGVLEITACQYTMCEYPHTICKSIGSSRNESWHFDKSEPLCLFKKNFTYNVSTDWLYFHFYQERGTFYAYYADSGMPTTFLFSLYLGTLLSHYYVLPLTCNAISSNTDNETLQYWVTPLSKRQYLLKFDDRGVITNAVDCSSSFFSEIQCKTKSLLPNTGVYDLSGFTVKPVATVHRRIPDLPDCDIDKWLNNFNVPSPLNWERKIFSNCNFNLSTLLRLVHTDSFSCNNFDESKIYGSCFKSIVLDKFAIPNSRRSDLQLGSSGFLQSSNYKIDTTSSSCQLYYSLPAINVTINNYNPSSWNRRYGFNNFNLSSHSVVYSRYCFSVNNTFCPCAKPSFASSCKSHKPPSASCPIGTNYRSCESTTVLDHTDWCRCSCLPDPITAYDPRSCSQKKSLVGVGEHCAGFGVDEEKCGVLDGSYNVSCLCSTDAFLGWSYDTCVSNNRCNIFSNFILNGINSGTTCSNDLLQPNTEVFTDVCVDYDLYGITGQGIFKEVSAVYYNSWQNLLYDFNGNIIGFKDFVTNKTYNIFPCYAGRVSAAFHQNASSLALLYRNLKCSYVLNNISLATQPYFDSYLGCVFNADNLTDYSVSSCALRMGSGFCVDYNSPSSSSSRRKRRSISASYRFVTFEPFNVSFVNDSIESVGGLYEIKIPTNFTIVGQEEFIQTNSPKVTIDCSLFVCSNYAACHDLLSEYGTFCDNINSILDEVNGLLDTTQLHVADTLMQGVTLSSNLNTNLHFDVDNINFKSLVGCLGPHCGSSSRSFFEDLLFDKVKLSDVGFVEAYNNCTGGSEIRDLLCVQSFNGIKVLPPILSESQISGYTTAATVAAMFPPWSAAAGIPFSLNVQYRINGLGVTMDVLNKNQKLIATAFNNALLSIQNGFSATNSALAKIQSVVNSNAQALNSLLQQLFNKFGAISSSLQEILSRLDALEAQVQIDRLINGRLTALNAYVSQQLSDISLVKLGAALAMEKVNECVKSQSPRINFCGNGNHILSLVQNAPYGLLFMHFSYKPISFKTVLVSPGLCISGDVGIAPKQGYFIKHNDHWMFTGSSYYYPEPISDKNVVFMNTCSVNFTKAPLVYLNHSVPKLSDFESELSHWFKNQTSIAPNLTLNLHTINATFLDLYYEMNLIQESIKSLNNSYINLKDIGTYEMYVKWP

T2: HCoV-OC43 spike protein (HCoV-OC43)
T2 chain: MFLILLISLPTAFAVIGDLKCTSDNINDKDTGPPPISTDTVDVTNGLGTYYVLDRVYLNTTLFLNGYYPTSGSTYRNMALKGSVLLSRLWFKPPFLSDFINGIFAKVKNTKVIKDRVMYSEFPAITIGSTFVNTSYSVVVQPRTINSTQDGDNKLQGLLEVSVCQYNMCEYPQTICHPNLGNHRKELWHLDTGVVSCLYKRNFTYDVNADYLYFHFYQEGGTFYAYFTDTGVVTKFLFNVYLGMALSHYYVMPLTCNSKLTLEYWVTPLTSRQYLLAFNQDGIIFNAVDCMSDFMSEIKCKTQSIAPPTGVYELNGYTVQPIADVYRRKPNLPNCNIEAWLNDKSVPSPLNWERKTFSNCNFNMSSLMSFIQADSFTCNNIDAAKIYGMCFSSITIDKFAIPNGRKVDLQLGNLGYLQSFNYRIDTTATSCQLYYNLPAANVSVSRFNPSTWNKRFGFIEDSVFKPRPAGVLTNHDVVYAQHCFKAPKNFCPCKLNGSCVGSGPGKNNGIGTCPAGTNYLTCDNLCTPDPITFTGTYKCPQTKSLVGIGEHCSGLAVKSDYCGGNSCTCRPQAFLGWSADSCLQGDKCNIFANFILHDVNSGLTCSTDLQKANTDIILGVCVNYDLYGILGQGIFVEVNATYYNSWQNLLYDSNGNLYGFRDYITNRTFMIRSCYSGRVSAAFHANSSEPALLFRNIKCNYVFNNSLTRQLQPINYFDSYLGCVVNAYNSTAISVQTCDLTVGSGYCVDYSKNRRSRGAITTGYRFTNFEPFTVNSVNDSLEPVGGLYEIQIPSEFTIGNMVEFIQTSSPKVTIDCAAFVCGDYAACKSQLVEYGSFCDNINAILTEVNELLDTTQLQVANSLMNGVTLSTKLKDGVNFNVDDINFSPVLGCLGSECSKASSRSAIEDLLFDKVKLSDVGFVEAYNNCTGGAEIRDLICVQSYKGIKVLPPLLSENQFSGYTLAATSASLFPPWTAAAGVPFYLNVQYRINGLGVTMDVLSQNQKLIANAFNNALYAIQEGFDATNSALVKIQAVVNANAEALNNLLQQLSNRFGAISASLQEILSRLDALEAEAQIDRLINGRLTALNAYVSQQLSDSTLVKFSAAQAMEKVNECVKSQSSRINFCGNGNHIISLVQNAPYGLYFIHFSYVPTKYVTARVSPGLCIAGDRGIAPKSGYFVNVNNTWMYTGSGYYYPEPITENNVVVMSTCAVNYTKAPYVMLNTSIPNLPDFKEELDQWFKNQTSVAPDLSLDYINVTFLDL

B1: 6-O12-A (antibody, V domains shown)
VH: QVQLQQPGTELVKPGASVKLSCKASGYTFTSYWMHWVKQRPGQGLEWIGNINPSNGGTNYNEKFRSKATLTVDKSSSTAYMQLSSLTSEDSAVYYCARLGWFLPLGSWGQGTTLTVSS
VL: QIVLTQSPAIMSASLGEVITLTCSASSSVSYMHWYQQKSGTSPKLLIYSTSNLASGVPSRFSGSGSGTFYSLTISSVEAEDAADYYCHQWSGYMYTFGGGTKLEIK
B2: 1-L10-A (antibody, V domains shown)
VH: EVKLEESGGGLVQPGGSMKLSCVASGFTFNNYWMNWVRQSPEKGLEWVAQMRLKSDNYATHYAESVKGRFTISRDDSKSSVYLQMNNLRAEDTGIYYCIEGYWTYWGQGTLVTVSA
VL: QIVLTQSPAIMSASLGERVTMTCTASSSVSSSYLHWYQQKPGSSPKLWIYSTSNLASGVPARFSGNGSGTSYSLTISSMEAEDAATYYCLQYHRSPPYTFGGGTKLEIK
B3: 7-D7-A (antibody, V domains shown)
VH: QVQLKESGPGLVAPSQSLSITCTVSGFSLTSYAISWVRQPPGKGLEWLGVIWPGGGTNYNSALKSRLSISKDNSKSQVFLKMNSLQTDDTAKYYCARTGYYFDYWGQGTTLTVSS
VL: QLILTQSPAIMSASPGEKVTMTCSASLSVNYMYWFQQKPGTSPKRWIHDTSKLASGVPARFSGSGSGTSYSLTISSMEAEDAATYYCQQWSSNPPMYTFGGGTKLEIK
B4: 8-A17-A (antibody, V domains shown)
VH: B3 VH with I51V, S70N, A91G, K92R, Y101H
VL: B3 VL with L2I, I3V, A25V, L27S, N30S, Y33H, F35Y, P39S, H48Y
B5: 9-F6-A (antibody, V domains shown)
VH: EVQLQQSGPELVKPGASVKMSCKASGYTFTSYIMHWVKQKPGQGLEWIGYILPYNDGTKYNEKFKGKATLTSDKSSSTAYMELRSLTSEDSAVYYCARWGYSNFLDSWGQGTTLTVSS
VL: DIQMTQTTSSLSASLGDRVTISCRASQDINNYLNWYQQKPDGTVKLLIYYTSRLHSGVPSRFSGSGSGTDYSLTIRNLEQEDIATYFCQQGNTLPPTFGGGTKLEIK
B6: 1-B11-A (antibody, V domains shown)
VH: QVQLQQSGPELVKPGASVKISCKASGYTFTDHYINWVKQRPGQGLEWIGWIFPGSGSTYYNEQFKGKATLTVDKSSNTAYMLLSSLTSEDSAVYFCARSGGLRLGFAYWGQGTLVTVSA
VL: B5 VL with N30S, R76S, A84S, G91V, P96Y
B7: 2-G20-A (antibody, V domains shown)
VH: EVQLQQSGPELVKPGASVKMSCKASGYTFPSYVLHWVKQKPGQGLEWIGYIYPYNDGTNYNEKFKGKATLTSDKSSSTAYMELSSLTSEDSAVYYCARGDYGDSAWFPYWGQGTLVTVSA
VL: DIVLTQSPASLAVSLGQRATISCRASKSVSTSGYSYMHWYQQKPGQPPKLLIYLASNLKSGVPARFSGGGSGTDFTLNIHPVEEEDAATYYCQLSRELPWTFGGGTKLEIK

Target: T1, HKU1 spike protein
Experiment: ELISA

Binder	EC50
B1	0.41 nM
B2	2.73 nM
B3	1.3 nM
B4	0.37 nM
B5	0.61 nM
B6	0.82 nM
B7	1.39 nM

Target: T2, HCoV-OC43 spike protein
Experiment: ELISA

Binder	EC50
B1	0.23 nM
B2	0.77 nM
B3	0.23 nM
B4	0.05 nM
B5	0.05 nM
B6	0.57 nM
B7	0.28 nM
